Data set [1] addresses elastase.
In data set [2] the target is thrombin.
Data set [3] concerns the target furin endoprotease endogenous to BSC-40 cells.
The subject of the next data set is Human furin. The class given is biochemical. The following applies: for percent endoprotease activity in presence of each serpin (Furin): relative concentration of serpin inhibitor 100; for inhibition of furin endoprotease activity (FIG. 2, in words): serpin 10 μg/mL, 20 min 37° C. pre-incubation, substrate 50 μM.
Data set [4] relates to elastase. It counts as biochemical. The following applies: relative concentration of serpin inhibitor 100.
Data set [5] deals with furin-mediated processing of pro-β-NGF in BSC-40 cells. The class given is cell-based, African green monkey.
Data set [6] deals with furin-mediated processing of HIV-1 gp160 in BSC-40 cells. It counts as cell-based, African green monkey.
The test system of data set [7] is syncytium formation IP/IR cells / CD4+ HeLa cells. The class given is cell-based, human. Conditions: serpin co-expressed with gp160 in IP/IR cells.
The subject of data set [8] is thrombin. It counts as biochemical.

From patent US6022855A, “Methods and reagents for inhibiting furin endoprotease” (Oregan Health Sciences University, priority 1995, dated 2000) come the findings set out here.

For α1 -antitrypsin Portland, the results for the percent endoprotease activity in presence of each serpin with elastase [1] and with thrombin [2] were 101% and 95%, respectively. The same molecule had a percent of pro-β-NGF processed in VV:mNGF-infected BSC-40 cells with α1 -PDX protein in the medium (densitometry) (% processed at 50 µg/mL) in data set [3] of 10.
As to α1 -antitrypsin Pittsburgh, the percent endoprotease activity in presence of each serpin with elastase [1] was 98%; with thrombin [2], 8%.
Turning to native α1 -antitrypsin, the percent endoprotease activity in presence of each serpin in the data set with elastase [1] came to 13%.

B1: α1 -NAT: native α1-antitrypsin, naturally-occurring protease inhibitor (-Ala-Ile-Pro-Met- at positions 355-358) (protein)
chain: EDPQGDAAQKTDTSHHDQDHPTFNKITPNLAEFAFSLYRQLAHQSNSTNIFFSPVSIATAFAMLSLGTKADTHDEILEGLNFNLTQIPEAQIHEGFQELLRTLNQPDSQLQLTTGNGLFLSQGLKLVDKFLEDVKKLYHSEAFTVNFGDTEQAKKQINDYVEKGTQGKIVDLVKELDRDTVFALVNYIFFKGKWERPFEVKDTEEEDFHVDQVTTVKVPMMKRLGMFNIQHCKKLSSWVLLMKYLGNATAIFFLPDEGKLQHLENELTHDIITKFLENEDRRSASLHLPKLSITGTYDLKSVLGQLGITKVFSNGADLSGVTEEAPLKLSKAVHKAVLTIDEKGTEAAGAMFLEAIPMSIPPEVKFNKPFVFLMIEQNTKSPLFMGKVVNPTGK
In the case of B1, in the data set with Human furin, the “percent endoprotease activity in presence of each serpin (Furin)” value stood at 101% and the “inhibition of furin endoprotease activity (FIG. 2, in words)” value is on record as “unable to inhibit”. Besides, the “percent endoprotease activity in presence of each serpin (Elastase)” value in the data set with elastase [4] is reported as 13%. Besides, the “forms of β-NGF secreted by co-infected cells (FIG. 3)” value in data set [5] was “produced both the processed and unprocessed forms of β-NGF”. Besides, the “gp160 processing products in co-infected cells (FIG. 4)” value in [6] is “produced both unprocessed gp160 and processed gp120 and gp41”. Moreover, the “effect on gp41-mediated syncytia formation (FIGS. 6D-6F)” value in data set [7] is reported as “had no effect on syncytia formation”.

B2: α1 -PIT: naturally-occurring variant α1-antitrypsin Pittsburgh, Met358→Arg358 mutation (Ala355-Ile-Pro-Arg358) (protein)
chain: EDPQGDAAQKTDTSHHDQDHPTFNKITPNLAEFAFSLYRQLAHQSNSTNIFFSPVSIATAFAMLSLGTKADTHDEILEGLNFNLTQIPEAQIHEGFQELLRTLNQPDSQLQLTTGNGLFLSQGLKLVDKFLEDVKKLYHSEAFTVNFGDTEQAKKQINDYVEKGTQGKIVDLVKELDRDTVFALVNYIFFKGKWERPFEVKDTEEEDFHVDQVTTVKVPMMKRLGMFNIQHCKKLSSWVLLMKYLGNATAIFFLPDEGKLQHLENELTHDIITKFLENEDRRSASLHLPKLSITGTYDLKSVLGQLGITKVFSNGADLSGVTEEAPLKLSKAVHKAVLTIDEKGTEAAGAMFLEAIPRSIPPEVKFNKPFVFLMIEQNTKSPLFMGKVVNPTGK
For B2, in the data set on Human furin, the “percent endoprotease activity in presence of each serpin (Furin)” value is 97% and the “inhibition of furin endoprotease activity (FIG. 2, in words)” value is on record as “not furin”. In addition, in the data set on thrombin [8] (FIG. 2), the “inhibition of thrombin endoprotease activity (FIG. 2, in words)” value is “specifically inhibited”. Also, in the data set with thrombin [8] (relative concentration of serpin inhibitor 100), the “percent endoprotease activity in presence of each serpin (Thrombin)” value is 8%. In addition, the “percent endoprotease activity in presence of each serpin (Elastase)” value in the data set on elastase [4] amounted to 98%. Besides, the “forms of β-NGF secreted by co-infected cells (FIG. 3)” value in data set [5] was “produced both the processed and unprocessed forms of β-NGF”. Also, the “gp160 processing products in co-infected cells (FIG. 4)” value in data set [6] is “produced both unprocessed gp160 and processed gp120 and gp41”. Besides, the “effect on gp41-mediated syncytia formation (FIGS. 6D-6F)” value in data set [7] is “had no effect on syncytia formation”.
